Experiment [1] concerns the target EGFR coated on the plate (competitive binding test) (UniProt P00533). The experiment in a line: competitive ELISA on plate-coated EGFR; competitor GC1118 at […]; antibody:ligand molar ratio 1:10^4; remaining antibody binding.
Experiment [2] shares this target. Kind of experiment: competitive ELISA on plate-coated EGFR; competitor GC1118 at […]; antibody:ligand molar ratio 1:10^5; remaining antibody binding. For orientation: In an ELISA, binding on a coated surface is turned into a signal by an enzyme label.
For experiment [3] the target is unchanged. Kind of experiment: competitive ELISA on plate-coated EGFR; competitor cetuximab at […]; antibody:ligand molar ratio 1:10^4; remaining antibody binding.
For experiment [4] the target is unchanged. The experiment in a line: competitive ELISA on plate-coated EGFR; competitor cetuximab at […]; antibody:ligand molar ratio 1:10^5; remaining antibody binding.
Experiment [5] deals with T1, EGFR coated on the plate (competitive binding test) (UniProt P00533 25-645, limits assumed). Kind of experiment: competitive ELISA on plate-coated EGFR; competitor GC1118 at 1.5 nM; antibody:ligand molar ratio 1:10^4; remaining antibody binding.
The target in experiment [6] is T1, EGFR coated on the plate (competitive …). The experiment in a line: competitive ELISA on plate-coated EGFR; competitor GC1118 at 1.5 nM; antibody:ligand molar ratio 1:10^5; remaining antibody binding.
Experiment [7] has the same target. Kind of experiment: competitive ELISA on plate-coated EGFR; competitor cetuximab at 1.5 nM; antibody:ligand molar ratio 1:10^4; remaining antibody binding.
Experiment [8] has the same target. Kind of experiment: competitive ELISA on plate-coated EGFR; competitor cetuximab at 1.5 nM; antibody:ligand molar ratio 1:10^5; remaining antibody binding.

Take “Amphiregulin (from UniProt P15514 101-198) (ligand)”: the Antibody binding (%) turned out to be 99.6% in experiment [1], 99.9% in experiment [2], 96.6% in experiment [3] and 99.9% in experiment [4].

B1: β-Cellulin (ligand, human, UniProt P35070 32-111, looked up)
chain: DGNSTRSPETNGLLCGDPEENCAATTTQSKRKGHFSRCPKQYKHYCIKGRCRFVVAEQTPSCVCDEGYIGARCERVDLFY
notes: also called BTC; betacellulin
B1: the “Antibody binding (%)” value in experiment [5] worked out at 40.4%; in experiment [6], 18.9%; in experiment [7] it was 80.2%; in experiment [8] it was 51.1%.

B2: Heparin-binding EGF-like growth factor (ligand, human, UniProt Q99075 63-148, looked up)
chain: DLQEADLDLLRVTLSSKPQALATPNKEEHGKRKKKGKGLGKKRDPCLRKYKDFCIHGECKYVKELRAPSCICHPGYHGERCHGLSL
notes: also called HB-EGF
As to B2, the “Antibody binding (%)” value in experiment [5] stood at 65.1%; in experiment [6], 31.2%; in experiment [7] it was 96.2%; in experiment [8], 76.1%.
